Measurements published in article PMC4032163.

Key:
[1] = target: BG505 SOSIP.664 gp140 trimer (HIV-1 subtype A transmitted/founder virus BG505); experiment: native gel or EMSA; BN-PAGE, Coomassie blue staining, of 2G12-affinity-purified Env proteins and of SEC-purified trimers from stable cell lines and transient transfection
[2] = target: uncleaved CZA97.012 gp140 (HIV-1 subtype C, CZA97.012 | not stated); experiment: SEC

| Substance | stoichiometry N [1] | stoichiometry N [2] |
| --- | --- | --- |
| BG505 SOSIP.664 gp140 trimer (complex) | 3 | – |
| uncleaved CZA97.012 gp140 | – | 3 |
